One block for each molecule: values may come before it.
What was measured:
MD8S protein = experiment: Inhibition of digestion of recombinant IGFBP-5 by MD8S protein (western blotting); type: biochemical, human
Experimental: The MD8S enzyme solution obtained in Example 8(1) was reacted with recombinant IGFBP-5 obtained in Example 9(1) in a 50 mmol/L tris-HCl (pH7.4) buffer containing 50 mmol/L NaCl, 2 mmol/L CaCl2, 20 μg/mL bovine serum albumin (BSA), and 0.1% CHAPS at 37° C. overnight. In this connection, concentrations of the MD8S protein and recombinant IGFBP-5 in the reaction solution were 1.5 μg/mL and 10 μg/mL, respectively.
Using an aliquot of the reaction solution, SDS-PAGE was carried out, and then a transfer to a PVDF membrane and blocking was carried out. Recombinant IGFBP-5 was detected by reacting a biotinylated M2 antibody (Sigma) as the first antibody, followed by a horseradish peroxidase-labeled streptavidin (Amersham) as the second antibody, and by using an ECL Western Blotting Detecting System (Amersham Pharmacia).
Substances inhibiting the activity of digesting IGFBP-5 by the MD8S protein can be screened by the reaction system utilizing western blotting performed in Example 9(2). In this Example, the procedure described in Example 9(2) was repeated, except that various compounds having a hydroxamic acid scaffold as a compound to be tested were added to the reaction system containing the MD8S enzyme solution and recombinant IGFBP-5, to measure an inhibitory intensity of the activity of digesting IGFBP-5. […]

IGFBP-5 = experiment: Activity of digesting IGFBP-5 by MD8S protein; type: biochemical, human; conditions: MD8S 1.5 μg/mL, 37° C. overnight
Experimental: (§1) The MD8S enzyme solution obtained in Example 8(1) was reacted with commercially available IGFBP-3 or IGFBP-5 (upstate biotechnology) in a 50 mmol/L tris-HCl(pH7.4) buffer containing 50 mmol/L NaCl, 2 mmol/L CaCl2, 20 μg/mL bovine serum albumin (BSA), and 0.1% CHAPS at 37° C. overnight. In this connection, concentrations of the MD8S protein and IGFBP-3 (or IGFBP-5) in the reaction solution were 1.5 μg/mL and 10 μg/mL, respectively.
(§2) Using an aliquot of the reaction solution, sodium dodecyl sulfate polyacrylamide gel electrophoresis (SDS-PAGE) was carried out, and then a transfer to a PVDF membrane and blocking was carried out. IGFBP-3 was detected using an anti-IGFBP-3 polyclonal antibody (R&D System) as the first antibody and a peroxidase-labeled rabbit anti-goat IgG polyclonal antibody (ZYMED) as the second antibody. IGFBP-5 was detected using an anti-IGFBP-5 polyclonal antibody (upstate biotechnology) as the first antibody and a peroxidase-labeled goat anti-rabbit IgG polyclonal antibody (MBL) as the second antibody.
The MD8S enzyme solution obtained in Example 8(1) was reacted with recombinant IGFBP-5 obtained in Example 9(1) in a 50 mmol/L tris-HCl (pH7.4) buffer containing 50 mmol/L NaCl, 2 mmol/L CaCl2, 20 μg/mL bovine serum albumin (BSA), and 0.1% CHAPS at 37° C. overnight. […]

IGFBP-3 = experiment: Activity of digesting IGFBP-3 by MD8S protein; type: biochemical; conditions: commercial IGFBP-3 10 μg/mL, MD8S 1.5 μg/mL, 37° C. overnight; new band of 25 kDa
Experimental: as §1, §2

IC50 (MD8S protein; MD8S 1.5 μg/mL, recombinant IGFBP-5 10 μg/mL, 37° C. overnight, western blot image analysis, read-out: intensity of the inhibition activity (IC50) of the activity of digesting IGFBP-5): 3.3 µM
Molecule: CCCOCC(C(=O)NC(Cc1ccc(OC)cc1)C(=O)NC)C(CSC)C(=O)O (stereo not drawn) [compound A, N^α-[(3-carboxy-4-methylthio-2-propoxymethyl)butyryl]-N,O-dimethylthyrosineamide]
activity of digesting recombinant IGFBP by the MD8S protein in presence of compound (FIG. 3) (MD8S protein; electrophoresis, compound A 1 nmol/L to 10 μmol/L): inhibited

B1: MD8S protein: extracellular region of human MD8 protein, 1st to 646th amino acids of SEQ ID NO: 2, with C-terminal FLAG tag (protein, listed as Homo sapiens)
chain: MRGLGLWLLGAMMLPAIAPSRPWALMEQYEVVLPRRLPGPRVRRALPSHLGLHPERVSYVLGATGHNFTLHLRKNRDLLGSGYTETYTAANGSEVTEQPRGQDHCFYQGHVEGYPDSAASLSTCAGLRGFFQVGSDLHLIEPLDEGGEGGRHAVYQAEHLLQTAGTCGVSDDSLGSLLGPRTAAVFRPRPGDSLPSRETRYVELYVVVDNAEFQMLGSEAAVRHRVLEVVNHVDKLYQKLNFRVVLVGLEIWNSQDRFHVSPDPSVTLENLLTWQARQRTRRHLHDNVQLITGVDFTGTTVGFARVSAMCSHSSGAVNQDHSKNPVGVACTMAHEMGHNLGMDHDENVQGCRCQERFEAGRCIMAGSIGSSFPRMFSDCSQAYLESFLERPQSVCLANAPDLSHLVGGPVCGNLFVERGEQCDCGPPEDCRNRCCNSTTCQLAEGAQCAHGTCCQECKVKPAGELCRPKKDMCDLEEFCDGRHPECPEDAFQENGTPCSGGYCYNGACPTLAQQCQAFWGPGGQAAEESCFSYDILPGCKASRYRADMCGVLQCKGGQQPLGRAICIVDVCHALTTEDGTAYEPVPEGTRCGPEKVCWKGRCQDLHVYRSSNCSAQCHNHGVCNHKQECHCHAGWAPPHCAKLLTE
modifications: C-terminal FLAG tag
activity of digesting IGFBP-5 (IGFBP-5; commercial IGFBP-5 10 μg/mL, new bands 12 to 25 kDa): exhibits an activity of digesting IGFBP-3 and IGFBP-5
activity of digesting recombinant IGFBP-5 (IGFBP-5; recombinant IGFBP-5-FLAG 10 μg/mL): exhibits an activity of digesting IGFBP-5
activity of digesting IGFBP-3 (IGFBP-3): exhibits an activity of digesting IGFBP-3

Source: US7374923B2, “Polypeptide” (Astellas Pharma Inc., priority 2002, dated 2008)
